The nature of this data set: protease stability score; higher = more stable; yeast display proteolysis, trypsin and chymotrypsin.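 Also: relative to predicted unfolded state with 0 unfolded-like and 1 meaning tenfold more protease.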
For “DEHRESLETALEIEIETMLTGDEDSFKRLADPHYRLDVNGVKYHGREAVRVYLEQFDYVEHIVSKDVLVQGDKVRWDVQLDGKYNGQRRRVRVDIISRKINGRWILEEIRIK”, the protease stability score was 0.748.
As for “SHEDELSRHILETWKEILDTGDEHTEHELADPNTRIEVDGRDIMGWHAWNHFLRKMGIKHIHFERVSIQGNKIHIDGIMEFDGRRRKTDIDLHVVNGRIESIRYEVK”, the figure is 1.63; as for “SEDEDIAKEILRLLLEALRTGDWHTVHRLMDPHARVHVNGRDFIGMEEVLRWLEEFLRHMRLRSLTVHDIRIFDGRLHVDSRSDVEIDGRRISIETEVIILKVDGRWHVKSIIFR”, 1.36.
The value for “TEMEEEIRDSIELLDRAINTGDEEKLRRLFDPNTRREVGDKQHHGRELLIRQIVELGAEHHIHVDHWRLQGDKAVIDGTLNYEFNGREYRTRTTLHLVKINGRWLMHSIHLH” was 1.08.
The value for “SHEDELIEKTLHITLEAYTTGDEHTVTRMLDPHVKILFNGVELIGRELVWEHLKEIRMHWHHVHIEDIKRQGEKIHITGRLYMEIRQGDYRERSTYRTRIITLKINGRWFIESLEIN” was 1.95; that for “SEYEDLIKTALHLWHEIFLTGNEDVLHRLIDPHVRVTFNGVRNHGRDYLLHHIEELGMEHHNFDISHVDMQGDKIILYTFLHAHVNGRTTSFQLHIFWIKVNGRWIVKRVEIR” was 0.759; that for “SEIDHIVKELIRRESEYLKTGDEDAFHDLFDPSTRIEINGQEFHGREWHKHLLKELRFHSIELHDWRIVGDKVEMDTRMLTEVGDKRDYRRTTMHATKFDGKWYLTRVIIE” was 1.24.
In turn, “SEEEREAQTFYEEWRENFRTGDFDRLHELMDPNARIHQGDKLIIGRQLLEHWRHRFKNIRVDFDLKHIEVQGEKIILRLHFEISIDGRTEHYDMIMIVHKVDGVWIVKSFTIK” registered a protease stability score of 1.43.
With “DDDTREFEKWEKIWVEYYQTGNFDHLRRLIDPNVRSIVDGKEFHGREAMASMILEETKRADHIEMDLTRHEIIGEKMIIHSRIEIQVGDYHDHYRLELESIKVNGKWIVHRESYR”, the protease stability score was determined as 0.039.
The value for “SELEELWKRLLEEFVRLLHTGNEERILDLMDPHARVHTTFENHEFHDHGREAFHIMWEEFGINHLEFHRVRLFNGQVDITGSVNVNGREMETRIHLYIINGRVHQTIFRFR” was 0.996; that for “SEEEKLLTDWLRELEEVTRTGDEESIMRMVDPNDKMDVGDKHRHGMHAQEVWIEVFRRQFGIDNFEVRLIINHRRIVDGQAHVDGELQLIYNGRTTSLRIELIIDKFDGRWLISSIRYN” was 1.19.
Turning to “DEEHHDARRIIEEFITLLKTGDEENLDEYLDPNVRIEFNGRDLHGMEWFLHFLREIRFRDDDHKRIQVKVINGQVHILIKMHVDGVWDGRRKISDVHLHFTVVKVDGRWRFTSIHVHIE”, the protease stability score was 1.35.
As for “DEEERMAHEVAEILLRSLHTGDWRRDMDLLDPHVRFDFNGVHLHGREEWLRHLHEFWRKFGVEFFDLHEDNISIQGDKAIMDGQIEFNGRRTKQKLEITVIDGRVKEVRVEIH”, the figure is 0.59; as for “DEDTKLAQKMSKLLNHAIHTGDEKILRQLLDPHVRVHIGDKEHHGWKEYEKIMQEWRFEHVETEHVSLVNGRLHIDSHIVGNIDGRRTEVETHIIIKKFDGRWIDTEFHMK”, 0.583; as for “DEDTELLKHHLDIFRDAVRTGDEEKERKYADPDDRINVDGVIFHGWEESKRFYEHWRVKDFHVHDMKVQGDKADVESRLVVQINGREVIFRVKLIITKVNGRWKHTMLEIK”, 1.62.
As for “SEEHHDAERAMEEFLKVMNTGNEKLLRDLIDPNVRTEINGQEIIGWKSMHRIMREWGVDNIRVHLRRLEVQGEKLHLEEELNVNGRTSKMEIVALKINGRWVVSEIRFH”, the figure is 2.03; as for “DELKSLSRKATEDIVELIITGDEKMLREYMDPNVRVDINGQEIHGREIFFEYIRHLLEHMGVDHLKLDRMEVRDINGQLYIHFRGTTVFNGRTYDEELIWVIVKIDGRWYIEQIEIRFE”, 1.3; as for “SEEEHVMVEIVRKLTEAKHTGDFKTEHELMDPHARIDINGVEIHGMEEWRHLYEEWRFIVHRTHVRHVHVQGDKVDLKGEFRGVIDYDGREIEYNTKVNLHLHKVDGRWQLHDVKTT”, 0.552.
The value for “DDDEEIIERALRLWEKFEQTGDEKRLDEMIDPNVRVNYNGVIHHGRDHLRHFFSRFDHFKRLHIEDSRFFNGKIIIHTRLEGRIGDKERTVNVIIIALKVDGKWFLESWSMS” was 0.618.
On to “DEDRKLFTEATHRLNNVLETGDEDSLLRLMDPNTRYKVNGVELIGREMVKHMFRILMHHWRVKSHDYHDIEIQGDWAVIDSRVDGVIDGRRTHTQLRVESIKIDGKWFDHEVTLE”, for which the protease stability score was found to be 0.398.
The value for “SEEHEEVERLMRIYFEERLTGDWDRWLSNVDPHTRIIIEIGDKRIELHGWKDFLRFLRFIKNITIHHVHIRHVDVQGDKAHVDEEIDVTIGDKRTKITHEMIIIVVNGRIKHVYERYI” was 1.44; that for “SEDEELVERAIRWLESILQTGDEHVLEHFADPHVRVTVGDYDDHGRHAIHTVWRLMGVNHSEIKRKDIQVVNGVIYIHLDGVSRVNGRNFKLSIHVILEKIDGRWHVRTLHVDIK” was 1.05.
As for “GEMEKLLFKIFEEWMKLRKTGDEDVIAHLADPDYRWDVNGVDLHGMEHVKEFTEEFLRHLGFDHQEYRIRRFDHDGNKLRADTEVRIVVNGVDITHRTHIIIVQFNGKVKSVKERIR”, the figure is 0.292; as for “DEDEERMEHMIHLLDHALETGDWRTISKLIDPHVRLEVNGVNFVGREEIITFLLEIRMSSRIHIKDFRVVGDKLEMEIDSHIDLHYNGKTYQTRVESRLIIKKVNGRWILQESSER”, 1.15; as for “DELEKAIHHILKELLEARLTGDWQMVIDRFDPHVLLRVGDKEFHGREIIRHLHEQFDHVEHVDLRLENHRYQGNKIHLDIKTTMDVRVGEKRVELRTESRIILLKVNGRWIIESVEIN”, 2.02.
The value for “DESEKIMEDATKEHVKSFETGDFHTLLRQLDPHVRNNVNGVELHGREDVIRVLRELMERFPNVRVHIERIEVIGDKVNIKVNWNFNGVIVDVNIIAAKINGRWVNREMEVR” was 0.966; that for “SEEEEVMERFVELLIKLLITGDEEVLEHLMDPNVRIQIGDKVYHGREVARDLWRRYHRHWRIHDTEVKHHHVQGEFIEIHISIDGEIDGRREEERIIFFVVKINGRWLLHDIHFN” was 2.51; that for “DEEERLSREILELNIEVLETGNEHVVRELLDPHVKMEVGDKEYHGREEFVTLFHHFGIDHFHIHEIRFIGNKAEMHVSSEINGRRFSILIIAHKVNGKWIMHTMHVE” was -0.037.
Consider “DETKEKVRIALELLETLHRTGDEDKFLELADPHYQLHINGQTVIGRETIYELLVRFLHHLGATSEVRIRSVDWQGDKIIVDMRLHFRVGDKSFEIQVHIYILKVNGKWLIESIEIR”, for which the protease stability score was 1.68.
For the sequence “DEEEELSKRLVELLLKLLKTGNEEELIKNADPHAKVQIRINGREFIHHGWEAFSHLWRHYIIKFKNIRIHDRHMEIQGDWVHIHSEEQIGDKRIEVEIRIQIINGVQKNVHIDIHEH”, the protease stability score stood at 1.47.
The value for “NEEEEESKWAYEEMIKVVKTGDEERLKELADPHTRVHMLVNGRLHNLHGREFLVLAWRLLGFDHLELKRMHVEVVNGRVHINLHGHVEINGRTHTLHIHIDAEKVDGRWIVRRVEIRSE” was 1.5; that for “DEQERLMRKLAEIIVEAIITGDWRSLAELFDPDVRIDINGRELIGRETWVTWLQEEYKRFKNQRIELHIRDVDVQGDYSHIDGHSRIVIGDFVFTTEIHTEIVIIDGRVHSMHHHVK” was 1.18.
The value for “DELTELAEKAKELFVRIEKTGDEKTWSEYADPDVRIHVNGVDLHGREESLKWMHDLRERIKNMRVEFKDFKIEIIGNKVIIFIDGRLRYDGRELELESVYYVSKFNGRWRVESEELRIR” was 1.37; that for “SEEEEVLRHLSKTFTRAMLTGDWKFLFEFADPHVRNDVGDWTRIGMHSMIELLELLHRELRITHLHIDEVRVIGNKAEWEGRNNVRINGQEDKRDVRLELEIVDGKMSLVNVEFK” was 0.364.
Sequence “DEDEELSERATREFIENWKTGNFDDLMKLLDPNVKLDVGDKRHHGRERMVRSMVEILKHLGANVIDIHDTDVYDGRIDIHLRLEAENHHSILTIHIEKINGRWLIRSMEIK” registered a protease stability score of 1.26.
“RESDEEREEFYKLLMHAYETGDERILNELMDPNVQIHQGEWHLHGRKDLRRRFKHLRIDHVDHITRDMRVVGDKIEVHGHIIVEGTVDGVRDTKSFDVHILTEKIDGQWFIKSVHIR”: the protease stability score turned out to be 0.903.
As for “TEIEKLLDEIVKHFLWAFLTGDWDKVAKLADPNTKSVWNGVDLVGMHLNEHVLEMLIRRYDVIHSIHLRSYRTQGDKLHVDSELNMIQGDKEETVRVRITLHVVNGRLKSIEVRIE”, the figure is -0.002; as for “DEHTDYIREILRLLSEVVRTGDEDSLRRLLDPDARIVINGVDLIGMEHWFRLMFEIRHFAEDSKLEHSEVQGDKVIAHGRYHGEYEFDGRRRRHDTEVEMHVHKIDGRWYVRSLSIR”, 1.72; as for “DEDTEEVRKADKIYIHYLLTGDEHKNNRLADPNVRLHWNGREFHGMELFTEAFREIRHELRFDHITHHHLRMFNGRLDSDTRVDGDINGVRTIFEMKLTLLKVDGRWVLKSTEIR”, 1.26.
As for “DEDERDTRLALEELLRVSRTGNEHDHHRLVDPHVRMEINGRELHGWEVLVRLMHRYDHQELRVREVRVIGDKIDVDTENIVNFNGVEIVLETSIVARKIDGRWLIHSIHIG”, the figure is 1.23; as for “DEDTKMSEEALRILVEIWRTGDEDRFLELADPHTRILINGRELHGMEFFVTWLRKVKNLKIERIQLDHVRFIDGRAELETTIRLRYGDKHDDLTFKFISDKFDGRWVLSEIIII”, 2.15.
The value for “TKDDEDRKHFEKLLRHSLETGNWHDMQRNADPNVRLNVNGVEIHGMDTAYELWVEELNRADHIEIHMEHSTRVGDKLHLDVNVIMKQGDKHIERRVRLVVLKINGRWFIHSVHVH” was 1.1; that for “SEDEEIMKDLLELFFEAMKTGDEDTLRHLFDPNARFVIGDKLLHGREEYIRYLQEWRVEIEHFNIRRLELVDGRIHLEGHMHLHVQYGDKHERRTHHLEWEIIKINGRWIFRSVRIN” was 1.48.
As to “DEHKELHERLLKMWLSIWETGDEERLRRNADPDTRFKHDFNGREETVVGRENVAKVLEDLRRELGIDHVHIRHFDVQGNYVDLTTELHFNGRIVNFHIIIRVVNGKLKEIHFELR”, the protease stability score is 1.26.
Regarding “DKDDHDFERVLRIFIESIRTGDEDSIRRLADPSVKHVVNGKEFHGREDWEEMIRRIDHIRDFELKSVSIYNGKIEVDGVLTGIFNGREDKTHVHIIMMKVNGRWYIKSWELK”, the protease stability score was 1.93.
As for “SEHEHSSRIAIELLLKTLKTGDERKIEENFDPNVRLIFEGRHIVGREEVFQHIHHLAHELRIEDMKIRRVEHVNGRIHIDLHVVIEINGQRIETDSHMVILKIDGKWKIELLEWR”, the figure is 1.61.
As for “SEEEKHVTSMMELWIHYIITGDEEFFLKLADPHTRFEIGDYENHGRDAVKWHRDHLGLDNVHSRIHIKELRAVGDKVHSHTHLVIHIGDKTIRMDTKVHIVYINGRITSIIVEIS”, the figure is 1.31.

Values taken from the NTF2 design screens of Basanta et al. (2020).
